The supplement of paper PMC7877785
± gives the uncertainty stated by the source.

Experiment: self-splicing fitness, log relative to wild type (ln ratio); higher = more splicing; Tetrahymena group I intron in knt gene, E. coli kanamycin selection, DiMSum; sequences stand for … in CUCUCU…GGAGGGAAAAGUUAUCAGGCAUGCACCUGGUAGCUAGUCUUUAAACCAAUAGAUUGCAUCGGUUUAAAAGGCAAGACCGUCAAAUUGCGGGAAAGGGGUCAACAGCCGUUCAGUACCAAGUCUCAGGGGAAACUUUGAGAUGGCCUUGCAAAGGGUAUGGUAAUAAGCUGACGGACAUGGUCCUAACCACGCAGCCAAGUCCUAAGUCAACAGAUCUUCUGUUGAUAUGGAUGCAGUUCACAGACUAAAUGUCGGUCGGGGAAGAUGUAUUCUUCUCAUAAGAUAUAGUCGGACCUCUCCUUAAUGGGAGCUAGCGGAUGAAGUGAUGCAACACUGGAGCCGCUGGGAACUAAUUUGUAUGCGAAAGUAUAUUGAUUAGUUUUGGAGUACUCGUGGUCG
In short: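 Pooled colonies went to amplicon sequencing on an Illumina HiSeq 2500 after six replicate transformations. The plates were LB agar with 100 μg/mL carbenicillin, 50 μM IPTG and 0.2% rhamnose, with or without 25 μg/mL kanamycin, incubated overnight at 37°C or 30°C. The E. coli BL21(DE3) library had all eight P1ex-region intron nucleotides randomised, the intron placed in the knt kanamycin-resistance gene on pET-22b(+). DiMSum fitness is the error-weighted combination of replicate fold changes, kanamycin against none, normalised to wild type.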

| Sequence | self-splicing fitness (ln) (30 °C) | self-splicing fitness (ln) (37 °C) |
| --- | --- | --- |
| CACAAGCAAUAUUACGUAUC | -4.88 ± 0.25 | -2.19 ± 0.15 |
| CACAAGCAAUAUUACGUGAA | -4.27 ± 0.25 | -2.39 ± 0.21 |
| CACAAGCAAUAUUACGUUAC | -4.46 ± 0.34 | -3.12 ± 0.36 |
| CACCAGCAAUAUUACGAAUA | -3.93 ± 0.21 | -2.62 ± 0.16 |
| CACCAGCAAUAUUACGACCC | -3.82 ± 0.25 | -2.98 ± 0.28 |
| CACCAGCAAUAUUACGACGC | -3.22 ± 0.19 | -1.39 ± 0.16 |
| CACCAGCAAUAUUACGACGU | -2.58 ± 0.096 | -1.11 ± 0.099 |
| CACCAGCAAUAUUACGAGGG | -2.81 ± 0.088 | -1.79 ± 0.093 |
| CACCAGCAAUAUUACGAGGU | -3.22 ± 0.12 | -2.53 ± 0.16 |
| CACCAGCAAUAUUACGAUAA | -4.88 ± 0.31 | -2.14 ± 0.19 |
| CACCAGCAAUAUUACGCAAA | -4.2 ± 0.27 | -2.99 ± 0.2 |
| CACCAGCAAUAUUACGCCAG | -0.583 ± 0.075 | 0.205 ± 0.097 |
| CACCAGCAAUAUUACGCCCG | -0.197 ± 0.14 | 0.343 ± 0.19 |
| CACCAGCAAUAUUACGCUUG | -1.06 ± 0.052 | -0.22 ± 0.069 |
| CACCAGCAAUAUUACGGAGU | -3.74 ± 0.18 | -2.54 ± 0.15 |
| CACCAGCAAUAUUACGGCCC | -1.8 ± 0.17 | -0.352 ± 0.19 |
| CACCAGCAAUAUUACGGGGG | -3.36 ± 0.11 | -2.64 ± 0.18 |
| CACCAGCAAUAUUACGGUAG | -1.97 ± 0.063 | -1.69 ± 0.09 |
| CACCAGCAAUAUUACGGUCA | -0.569 ± 0.05 | 0.174 ± 0.062 |
| CACCAGCAAUAUUACGUAAG | 0.114 ± 0.041 | 0.336 ± 0.061 |
| CACCAGCAAUAUUACGUACC | -4.01 ± 0.43 | -1.84 ± 0.33 |
| CACCAGCAAUAUUACGUAGC | -4.18 ± 0.17 | -2.41 ± 0.14 |

| Sequence | self-splicing fitness (ln) (30 °C) | self-splicing fitness (ln) (37 °C) |
| --- | --- | --- |
| CACCAGCAAUAUUACGUCGA | -1.89 ± 0.086 | -0.942 ± 0.088 |
| CACCAGCAAUAUUACGUGCG | -0.627 ± 0.04 | -0.299 ± 0.056 |
| CACCAGCAAUAUUACGUUAG | -0.512 ± 0.048 | 0.279 ± 0.064 |
| CACCAGCAAUAUUACGUUAU | -3.86 ± 0.12 | -3.32 ± 0.15 |
| CACCAGCAAUAUUACGUUUG | -0.595 ± 0.043 | -0.00269 ± 0.064 |
| CACGAGCAAUAUUACGAAGU | -1.68 ± 0.13 | -2.23 ± 0.19 |
| CACGAGCAAUAUUACGAAUU | -4.81 ± 0.41 | -2.25 ± 0.21 |
| CACGAGCAAUAUUACGACGG | -1.6 ± 0.13 | -0.392 ± 0.14 |
| CACGAGCAAUAUUACGACGU | -3.25 ± 0.17 | -3.34 ± 0.23 |
| CACGAGCAAUAUUACGACUA | -2.71 ± 0.21 | -1.85 ± 0.15 |
| CACGAGCAAUAUUACGAGAA | – | -1.61 ± 0.44 |
| CACGAGCAAUAUUACGAGAC | -2.99 ± 0.2 | -1.89 ± 0.3 |
| CACGAGCAAUAUUACGAUAG | -3.14 ± 0.15 | -1.6 ± 0.18 |
| CACGAGCAAUAUUACGCACA | -2.74 ± 0.19 | -1.17 ± 0.15 |
| CACGAGCAAUAUUACGCAUC | -1.74 ± 0.34 | – |
| CACGAGCAAUAUUACGCCCG | -1.88 ± 0.29 | -1.9 ± 0.28 |
| CACGAGCAAUAUUACGCGAC | – | -2.76 ± 0.27 |
| CACGAGCAAUAUUACGCGCC | – | -0.83 ± 0.48 |
| CACGAGCAAUAUUACGCGCG | -2.9 ± 0.24 | -1.25 ± 0.18 |
| CACGAGCAAUAUUACGCGGG | -4.05 ± 0.26 | -2.88 ± 0.26 |
| CACGAGCAAUAUUACGCGUG | -2.79 ± 0.19 | -2.97 ± 0.38 |
